In PMC3846833 one finds Kd, koff and kon data, which are given here for 1 substance.

The target of this assay is recombinant myostatin (R&D Systems) (UniProt O14793). The assay is described as follows: SPR; Biacore 3000, CM5 chip, about 2000 RU of ligand (ActRIIB-Fc or myostatin) amine-coupled by EDC/NHS; analyte 6.25-100 nM in HBS-EP (0.01 M HEPES pH 7.4, 0.15 M NaCl, 3 mM EDTA, 0.005% P20); 21°C, 30 µL/min; association 180 s, dissociation 300 s. On the technique in general: In SPR one partner is held on a chip, and binding of the other changes the refractive index at the surface.
Sequence of UniProt O14793 (O14793 267-375): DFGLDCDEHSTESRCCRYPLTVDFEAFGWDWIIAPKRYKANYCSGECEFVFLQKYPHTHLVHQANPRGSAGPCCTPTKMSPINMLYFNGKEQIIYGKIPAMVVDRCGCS

As for “recombinant putative mature sheep myostatin splice variant (rMSV, aa 275-321) (domain or fragment)”, the Kd (commonly the constant that tells how readily two partners part at equilibrium) is 0.0979 nM, the koff (commonly the first-order rate constant of dissociation) came to 4.32e-06 s⁻¹ and the kon (usually the rate constant with which the complex forms) came to 44100 M⁻¹ s⁻¹.
